Values quoted from earlier work in PMC3210452.
Read-outs that look alike come from different tables or passages of the source.

Legend:
[1] = target: Q-type voltage-gated calcium channel (UniProt O00555)
[2] = target: P-type voltage-gated calcium channel (UniProt P54282)
[3] = target: P-type voltage-gated calcium channel (UniProt P54282); remark: listed apart in the source

Chain of UniProt P54282 (P54282 whole entry): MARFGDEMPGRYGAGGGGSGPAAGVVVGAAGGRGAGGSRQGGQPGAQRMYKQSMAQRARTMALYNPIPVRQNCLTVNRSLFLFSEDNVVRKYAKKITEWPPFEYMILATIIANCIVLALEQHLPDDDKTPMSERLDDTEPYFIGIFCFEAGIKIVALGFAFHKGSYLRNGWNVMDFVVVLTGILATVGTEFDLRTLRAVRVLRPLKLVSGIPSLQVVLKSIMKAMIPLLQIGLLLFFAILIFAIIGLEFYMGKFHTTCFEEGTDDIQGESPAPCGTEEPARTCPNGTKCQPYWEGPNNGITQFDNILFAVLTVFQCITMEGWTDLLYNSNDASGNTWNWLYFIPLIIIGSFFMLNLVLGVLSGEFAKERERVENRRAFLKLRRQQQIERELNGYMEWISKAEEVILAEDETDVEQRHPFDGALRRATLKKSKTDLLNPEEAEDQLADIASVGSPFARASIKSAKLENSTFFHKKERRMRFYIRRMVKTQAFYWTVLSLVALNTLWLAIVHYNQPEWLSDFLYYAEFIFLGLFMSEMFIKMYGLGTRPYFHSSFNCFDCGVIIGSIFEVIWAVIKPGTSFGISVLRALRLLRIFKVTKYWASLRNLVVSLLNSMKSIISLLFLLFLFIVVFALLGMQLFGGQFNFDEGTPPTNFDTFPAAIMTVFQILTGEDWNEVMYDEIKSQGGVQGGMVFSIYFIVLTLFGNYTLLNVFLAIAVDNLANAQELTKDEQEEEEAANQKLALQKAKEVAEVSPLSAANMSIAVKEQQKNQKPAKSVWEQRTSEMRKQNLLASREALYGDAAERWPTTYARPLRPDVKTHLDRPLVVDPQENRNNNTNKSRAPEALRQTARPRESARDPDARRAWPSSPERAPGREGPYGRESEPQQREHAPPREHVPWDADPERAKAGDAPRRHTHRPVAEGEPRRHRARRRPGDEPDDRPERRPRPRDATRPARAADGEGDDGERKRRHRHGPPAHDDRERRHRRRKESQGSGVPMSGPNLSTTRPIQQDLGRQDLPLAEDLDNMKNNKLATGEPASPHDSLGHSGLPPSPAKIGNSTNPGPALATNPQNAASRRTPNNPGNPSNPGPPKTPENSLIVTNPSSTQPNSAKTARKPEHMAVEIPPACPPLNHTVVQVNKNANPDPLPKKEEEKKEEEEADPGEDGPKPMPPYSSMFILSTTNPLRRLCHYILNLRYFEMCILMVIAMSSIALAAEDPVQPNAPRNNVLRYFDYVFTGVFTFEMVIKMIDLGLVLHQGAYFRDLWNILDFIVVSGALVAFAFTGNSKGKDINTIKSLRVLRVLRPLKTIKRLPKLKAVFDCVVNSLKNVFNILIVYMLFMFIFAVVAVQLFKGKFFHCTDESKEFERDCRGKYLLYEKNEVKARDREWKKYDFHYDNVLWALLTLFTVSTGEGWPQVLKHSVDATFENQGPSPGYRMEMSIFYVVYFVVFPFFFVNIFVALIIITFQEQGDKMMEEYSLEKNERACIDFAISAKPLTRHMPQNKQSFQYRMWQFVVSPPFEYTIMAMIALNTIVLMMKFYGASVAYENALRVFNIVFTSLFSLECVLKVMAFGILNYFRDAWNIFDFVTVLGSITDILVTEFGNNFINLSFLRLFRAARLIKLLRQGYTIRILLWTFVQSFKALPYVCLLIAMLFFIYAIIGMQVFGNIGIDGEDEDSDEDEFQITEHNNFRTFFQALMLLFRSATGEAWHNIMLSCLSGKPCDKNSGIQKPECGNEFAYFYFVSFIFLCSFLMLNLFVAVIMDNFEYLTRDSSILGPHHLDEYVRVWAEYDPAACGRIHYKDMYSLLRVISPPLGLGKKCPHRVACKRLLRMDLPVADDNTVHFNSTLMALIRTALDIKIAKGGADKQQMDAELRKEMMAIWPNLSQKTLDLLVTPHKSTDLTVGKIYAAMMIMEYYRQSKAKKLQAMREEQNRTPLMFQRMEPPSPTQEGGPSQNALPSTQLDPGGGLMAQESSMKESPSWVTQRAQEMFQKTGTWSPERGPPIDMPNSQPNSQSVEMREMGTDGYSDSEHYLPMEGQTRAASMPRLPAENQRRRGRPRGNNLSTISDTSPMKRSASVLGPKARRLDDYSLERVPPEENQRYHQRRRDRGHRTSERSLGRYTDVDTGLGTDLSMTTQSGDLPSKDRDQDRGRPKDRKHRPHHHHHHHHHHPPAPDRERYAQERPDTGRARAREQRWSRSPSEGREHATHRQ
Chain of UniProt O00555 (O00555 whole entry): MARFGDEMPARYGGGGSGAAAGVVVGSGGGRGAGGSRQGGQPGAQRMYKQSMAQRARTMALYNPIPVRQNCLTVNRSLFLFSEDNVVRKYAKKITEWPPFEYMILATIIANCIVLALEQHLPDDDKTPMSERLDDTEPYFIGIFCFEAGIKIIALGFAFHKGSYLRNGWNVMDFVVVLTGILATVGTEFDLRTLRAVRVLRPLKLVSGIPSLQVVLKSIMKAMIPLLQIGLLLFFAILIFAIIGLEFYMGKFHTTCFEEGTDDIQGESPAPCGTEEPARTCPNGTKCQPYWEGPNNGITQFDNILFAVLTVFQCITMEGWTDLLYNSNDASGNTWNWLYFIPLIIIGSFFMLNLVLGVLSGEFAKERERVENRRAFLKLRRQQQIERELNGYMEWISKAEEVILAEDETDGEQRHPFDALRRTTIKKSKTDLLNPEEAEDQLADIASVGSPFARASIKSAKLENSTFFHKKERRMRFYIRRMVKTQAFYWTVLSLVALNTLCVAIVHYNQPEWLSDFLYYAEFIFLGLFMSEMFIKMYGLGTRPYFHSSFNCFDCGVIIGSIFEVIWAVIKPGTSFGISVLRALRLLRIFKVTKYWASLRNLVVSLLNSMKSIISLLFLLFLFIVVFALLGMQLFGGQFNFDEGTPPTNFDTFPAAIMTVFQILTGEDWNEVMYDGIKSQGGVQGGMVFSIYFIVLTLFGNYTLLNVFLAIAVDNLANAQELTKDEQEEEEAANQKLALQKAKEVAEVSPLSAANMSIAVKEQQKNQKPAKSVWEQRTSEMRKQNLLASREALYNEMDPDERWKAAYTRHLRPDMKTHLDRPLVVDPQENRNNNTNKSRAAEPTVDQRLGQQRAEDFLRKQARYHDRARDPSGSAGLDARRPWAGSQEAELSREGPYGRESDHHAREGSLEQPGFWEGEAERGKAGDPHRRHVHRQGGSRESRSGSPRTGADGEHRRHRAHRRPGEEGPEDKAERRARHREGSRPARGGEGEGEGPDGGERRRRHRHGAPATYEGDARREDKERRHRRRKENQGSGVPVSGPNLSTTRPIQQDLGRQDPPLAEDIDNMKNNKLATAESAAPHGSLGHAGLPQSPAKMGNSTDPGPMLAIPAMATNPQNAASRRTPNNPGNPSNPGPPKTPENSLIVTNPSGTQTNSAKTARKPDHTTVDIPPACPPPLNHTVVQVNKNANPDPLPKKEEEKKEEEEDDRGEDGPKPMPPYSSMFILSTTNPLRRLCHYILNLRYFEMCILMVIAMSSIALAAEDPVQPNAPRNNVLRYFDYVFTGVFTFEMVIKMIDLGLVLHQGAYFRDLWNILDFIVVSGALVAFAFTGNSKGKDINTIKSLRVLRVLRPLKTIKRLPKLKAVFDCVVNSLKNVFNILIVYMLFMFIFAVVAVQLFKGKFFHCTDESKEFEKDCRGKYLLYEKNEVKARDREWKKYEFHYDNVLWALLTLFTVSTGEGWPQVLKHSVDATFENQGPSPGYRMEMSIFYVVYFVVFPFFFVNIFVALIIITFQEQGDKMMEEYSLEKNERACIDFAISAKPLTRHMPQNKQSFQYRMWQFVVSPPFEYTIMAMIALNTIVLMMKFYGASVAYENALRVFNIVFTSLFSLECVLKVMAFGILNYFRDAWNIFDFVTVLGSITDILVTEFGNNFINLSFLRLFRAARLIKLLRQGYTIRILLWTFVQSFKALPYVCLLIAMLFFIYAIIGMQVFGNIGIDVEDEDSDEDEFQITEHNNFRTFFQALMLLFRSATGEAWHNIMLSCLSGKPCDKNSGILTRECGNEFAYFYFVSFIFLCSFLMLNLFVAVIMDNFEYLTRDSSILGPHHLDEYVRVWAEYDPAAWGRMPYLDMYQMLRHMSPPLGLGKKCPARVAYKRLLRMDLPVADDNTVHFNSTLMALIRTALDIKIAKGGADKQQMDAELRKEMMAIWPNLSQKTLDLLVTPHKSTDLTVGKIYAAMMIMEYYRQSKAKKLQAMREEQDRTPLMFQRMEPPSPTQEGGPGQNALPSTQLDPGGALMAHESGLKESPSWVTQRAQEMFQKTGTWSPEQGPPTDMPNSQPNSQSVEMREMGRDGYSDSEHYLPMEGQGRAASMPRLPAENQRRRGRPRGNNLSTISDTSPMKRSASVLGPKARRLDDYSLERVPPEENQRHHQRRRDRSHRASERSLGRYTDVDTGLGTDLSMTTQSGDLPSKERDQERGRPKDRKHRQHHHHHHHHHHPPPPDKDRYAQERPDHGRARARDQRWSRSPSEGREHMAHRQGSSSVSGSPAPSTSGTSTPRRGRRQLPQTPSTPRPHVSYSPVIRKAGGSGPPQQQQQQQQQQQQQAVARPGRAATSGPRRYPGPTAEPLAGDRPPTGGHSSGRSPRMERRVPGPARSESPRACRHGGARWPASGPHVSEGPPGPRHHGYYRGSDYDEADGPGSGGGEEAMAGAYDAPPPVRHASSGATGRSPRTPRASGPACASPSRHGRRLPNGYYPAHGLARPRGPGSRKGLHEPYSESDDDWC

Substance | Kd [1] | Kd [2] | Kd [3]
ω-agatoxin IVA (from UniProt P30288) | 100 nM | 2 nM | –
ω-agatoxin IVB (from UniProt P37045) | – | – | 3 nM
